# Measurements as given in PMC9157509.
# Target: AB variant of cytochrome cb562 (forms the disulfide-linked dimer (AB)2) (UniProt P0ABE7)
# Assay: solution small-angle X-ray scattering
substance,measurement,value
AB variant of cytochrome cb562 (forms the disulfide-linked dimer (AB)2) (from UniProt P0ABE7 23-128),stoichiometry N,2
